We go through 1 substance from publication PMC3324284.

“And” between values parts separate entries of the source, which are not always exact repeats. Equal entries are not always repeated. Where two headings read alike, the source gives them in different places.

The target in test [1] is Mga4-His6 (Group A Streptococcus (Streptococcus pyogenes), M4 serotype strain GA40634). Description: AUC.
For test [2] the target is unchanged. Description: SEC. A general note: In gel filtration, larger molecules generally elute earlier.
For test [3] the target is unchanged. Description: AUC. The source holds these as a separate data set.

On to Mga4-His6 (natural protein), for which the Kd turned out to be 6.13 µM in test [1] and 9.41 µM in test [3]. In addition, the stoichiometry N in test [2] is 2 and 4 and 6.

Usually Kd stands for the equilibrium constant for the complex coming apart. Low readings indicate higher affinity, high ones lower affinity. Usually stoichiometry N stands for a count of units in the complex or per binding partner.
